# Results from patent US20100240774A1, “USE OF HYDROPHOBIN POLYPEPTIDES AS PENETRATION ENHANCERS” (BASF SE, priority 2007, published 2010).
# Columns and labels:
# [1] = system: NHDF (normal human dermal fibroblast) cultures; assay: antioxidative capacity (DCFH fluorescence after H2O2 stress) in NHDF cultures; format: cell-based; settings: 24 h treatment, H2O2-induced radicals, protein concentration 0.001%, three independent runs, effect seen in two of three runs
# Description: The reference substances used were vitamin E (alpha-tocopheryl acetate), vitamin C (Mg ascorbyl phosphate) and quercetin. The test cells used were normal dermal connective tissue cells (fibroblasts) since these produced good signal strengths in the evaluation method. To ascertain the antioxidative properties of the solutions, the NHDF (normal human dermal fibroblast) cultures were sown out on 48-well culture vessels and cultivated until the culture surface was completely covered. The investigations were then carried out with these random cultures. Firstly, the cultures were treated for 24 h with the test solutions. […] The plates containing the cells were inserted into a fluorescence reader and the measurement was started with an introductory phase without stress. […] Low fluorescence thus indicates high antioxidative capacity. […] The y axis here represents the oxidative stress in the cells as the fluorescence which is emitted when free radicals react with the intracellular dye DCFH. […] All fluorescence values were corrected with the protein contents of the cultures following conclusion of the measurements (ascertained with Coomassie stain). This compensates for fluctuations in the cell number, which would also cause fluctuations in the fluorescence (on account of the varying amount of dye). […]
# [2] = skin penetration of lactic acid: pH of pigskin after tape stripping; format: in vitro ADME, pig; settings: for pH of the skin in the lower skin layers (after stripping) versus control without hydrophobin: hydrophobin coating and subsequent lactic acid treatment; for pH 1x stripping / pH 2x stripping / pH 3x stripping / pH without stripping: pigskin pretreated with 100 μl 0.1% hydrophobin 1.5 hours, then 15% strength lactic acid 10 minutes; for pH 1x stripping: after 1 Corneofix strip; for pH 2x stripping: after 2 Corneofix strips; for pH 3x stripping: after 3 Corneofix strips; for pH without stripping: mean of triple measurements
# Procedure: • 1. Preparation of a 1% strength solution of hydrophobin A and B in Millipore water Dissolution of the hydrophobin by vigorous stirring on a magnetic stirrer at 900 rpm for 45 minutes. • 2. Preparation of 1 ml of a ready-to-use hydrophobin solution: • 800 μl Millipore water +100 μl 10-fold buffer (500 mM Tris, 10 mM CaCl2, pH 8) +100 μl hydrophobin solution
# This corresponds to a 0.1% strength hydrophobin solution in 50 mM Tris 1 mM CaCl2 and pH 8
# • 1. Frozen and dehaired pigskin (not blanched) was defrosted at room temperature. Marking of the application fields measuring ca. 2 cm×2 cm Application of the following solutions (stripping): • control (without solution)
# • 2. Incubation of the solutions for 1.5 hours at RT
# In order to remove any buffer salts present, all of the application fields were rinsed with 2×500 μl of Millipore water and dabbed with a paper towel. • 3. Application of in each case 100 μl of 15% strength lactic acid to all application fields
# Incubation of the solutions for 10 minutes at room temperature
# Removal of the excess lactic acid using a paper towel
# Measurement of the pH of the pigskin on the respective application fields. Triple measurements were carried out and the mean was used. The water present after a pH measurement was dabbed off using a paper towel. A skin pH meter PH 905 from Courage & Khazaka was used.
# Removal of the uppermost loose cell layer using a Corneofix adhesive strip from Courage & Khazaka
# Renewed measurement of the pH
# Overall, a Corneofix adhesive strip was used 3 times and the pH measured thereafter.
molecule,measurement,setting,value
"CC(=O)Oc1c(C)c(C)c2c(c1C)CCC(C)(CCC[C@H](C)CCC[C@H](C)CCCC(C)C)O2 (stereo partly drawn) [Tocopheryl acetate, alpha-tocopheryl acetate]",oxidative stress / antioxidative potential (DCFH fluorescence),[1],no antioxidative potential
"hydrophobin B: fusion hydrophobin, SEQ ID NO: 26 from WO2007/14897; SEQ ID NO: 36 herein (yaad40-Xa-dewA-his) (protein, fusion protein yaad40-Xa-dewA-his) MAQTGTERVKRGMAEMQKGGVIMDVINAEQAKIAEEAGAVIEGRMRFIVSLLAFTAAATATALPASAAKNAKLATSAAFAKQAEGTTCNVGSIACCNSPAETNNDSLLSGLLGAGLLNGLSGNTGSACAKASLIDQLGLLALVDHTEEGPVCKNIVACCPEGTTNCVAVDNAGAGTKAEGSHHHHHH",pH of the skin in the lower skin layers (after stripping) versus control without hydrophobin,[2],lower pH
same,pH 1x stripping,[2],2.89
same,pH 2x stripping,[2],3.08
same,pH 3x stripping,[2],3.26
same,pH without stripping,[2],2.64
"hydrophobin A: fusion hydrophobin, SEQ ID NO: 20 from WO2007/14897 and herein (yaad-Xa-dewA-his) (protein, basf-yaad-Xa-dewA-his fusion of Bacillus subtilis yaaD and N-terminal factor Xa proteinase cleavage site and Aspergillus nidulans hydrophobin dewA and his6) MAQTGTERVKRGMAEMQKGGVIMDVINAEQAKIAEEAGAVAVMALERVPADIRAAGGVARMADPTIVEEVMNAVSIPVMAKARIGHIVEARVLEAMGVDYIDESEVLTPADEEFHLNKNEYTVPFVCGCRDLGEATRRIAEGASMLRTKGEPGTGNIVEAVRHMRKVNAQVRKVVAMSEDELMTEAKNLGAPYELLLQIKKDGKLPVVNFAAGGVATPADAALMMQLGADGVFVGSGIFKSDNPAKFAKAIVEATTHFTDYKLIAELSKELGTAMKGIEISNLLPEQRMQERGWRSIEGRMRFIVSLLAFTAAATATALPASAAKNAKLATSAAFAKQAEGTTCNVGSIACCNSPAETNNDSLLSGLLGAGLLNGLSGNTGSACAKASLIDQLGLLALVDHTEEGPVCKNIVACCPEGTTNCVAVDNAGAGTKAEGSHHHHHH",pH of the skin in the lower skin layers (after stripping) versus control without hydrophobin,[2],lower pH
same,pH 1x stripping,[2],3.08
same,pH 2x stripping,[2],3.39
same,pH 3x stripping,[2],3.63
same,pH without stripping,[2],2.62
